# Results reported in patent US20160002326A1.
# Tests used:
# [1] = target: rabbit IL-17 (rabbit); assay: cell-based or functional assay
# [2] = target: rabbit IL-17 (rabbit); assay: Biacore SPR, 3 experiments; unit not printed in Table 10
# [3] = target: mouse IL-17 (mouse) (UniProt Q62386); assay: assay not stated (Table 5, 'Source And Binding Information')
# Sequence of mouse IL-17 (mouse) (Q62386 26-158 limits assumed): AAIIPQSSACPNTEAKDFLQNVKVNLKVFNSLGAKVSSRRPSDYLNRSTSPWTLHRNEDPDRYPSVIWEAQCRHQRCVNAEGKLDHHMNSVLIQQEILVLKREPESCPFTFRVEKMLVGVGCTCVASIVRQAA
# Sequence of ABBV-257 anti-human TNF and IL-17 DVD-Ig binding protein (bispecific antibody) (heavy): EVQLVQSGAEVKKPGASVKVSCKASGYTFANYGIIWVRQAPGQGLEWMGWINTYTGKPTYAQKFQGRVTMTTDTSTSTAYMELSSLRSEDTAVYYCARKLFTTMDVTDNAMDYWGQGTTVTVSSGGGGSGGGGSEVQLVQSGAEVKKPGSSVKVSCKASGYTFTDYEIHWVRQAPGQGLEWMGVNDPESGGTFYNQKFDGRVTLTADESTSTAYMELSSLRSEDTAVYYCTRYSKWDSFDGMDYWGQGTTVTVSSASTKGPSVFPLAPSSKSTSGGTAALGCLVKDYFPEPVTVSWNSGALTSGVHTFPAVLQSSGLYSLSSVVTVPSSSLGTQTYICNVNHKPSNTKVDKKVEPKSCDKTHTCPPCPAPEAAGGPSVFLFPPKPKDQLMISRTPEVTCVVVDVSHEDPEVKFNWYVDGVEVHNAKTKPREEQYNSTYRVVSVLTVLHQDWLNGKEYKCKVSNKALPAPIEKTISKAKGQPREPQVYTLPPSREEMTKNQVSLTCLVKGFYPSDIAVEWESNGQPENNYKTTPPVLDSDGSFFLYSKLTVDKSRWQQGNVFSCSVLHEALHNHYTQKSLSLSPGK
# Sequence of ABBV-257 anti-human TNF and IL-17 DVD-Ig binding protein (bispecific antibody) (light): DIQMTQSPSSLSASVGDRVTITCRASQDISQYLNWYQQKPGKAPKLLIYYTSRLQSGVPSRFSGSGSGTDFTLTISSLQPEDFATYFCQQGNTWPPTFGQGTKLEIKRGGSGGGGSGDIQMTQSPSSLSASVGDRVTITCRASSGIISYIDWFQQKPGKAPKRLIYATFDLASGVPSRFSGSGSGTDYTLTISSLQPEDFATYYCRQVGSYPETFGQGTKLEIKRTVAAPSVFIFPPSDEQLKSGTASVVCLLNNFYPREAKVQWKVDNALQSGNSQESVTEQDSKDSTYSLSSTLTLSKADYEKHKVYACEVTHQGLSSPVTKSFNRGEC
Substance,"IC50, in vitro neutralization assay (In-Vitro Potency) [1]",Kd [2],IC50 [3]
ABBV-257 anti-human TNF and IL-17 DVD-Ig binding protein (bispecific antibody),11.4 nM,3.3 nM,
MAB421 anti-IL-17 antibody,,,0.7 nM
